B1: SEQ ID NO 233 (designed binder)
chain: VSDVPRDLEVVAATPTSLLISWDAPAVTVRYYWIQYYIYYSRGTQEFTVPGSKSTATISGLKPGVNYSIGVQAVQAYFGEPISINYRT
B2: SEQ ID NO 218 (designed binder)
chain: VSDVPRDLGVVAATPTSLRISWDAPAVTVRSYDIYYWYTTGGSQEFTVPGSKSTATISGLKPGVMYNIYVTAVDADVGGPISINYRT
B3: SEQ ID NO 232 (designed binder)
chain: VSDVPRDLEVVAATPTSLLISWDAPAVTVRGYGIYYGDTGDTQEFTVPGSKSTATISGLKPGVMYSIVVFAVEWYMWQPISINYRT
B4: SEQ ID NO 240 (designed binder)
chain: NVSPPRRARVTDATETTITISWRTKTETITDFEVAALPMVSTGIQRTIKPDVRSYTITGLQPGTTYYISLYTLDDDGPGTPVVIDAST
B5: SEQ ID NO 237 (designed binder)
chain: VSDVPRDLEVVAATPTSLLISWDAPAVTVRNYSIKYKYIPYVSHQEFTVPGSKSTATISGLKPGVTYSIRVQAVYYLIERYPISINYRT
B6: SEQ ID NO 255 (designed binder)
chain: NVSPPRRARVTDATETTITISWRTKTETITEFFVMAEPYYGEGYYIQRTIKPDVRSYTITGLQPGTSYSINLYTLKRPYLYPVVIDAST
B7: SEQ ID NO 229 (designed binder)
chain: VSDVPRDLEVVAATPTSLLISWDAPAVTVRTYYIGYGMYTYGQEFTVPGSKSTTTISGLKPGVVYDIYVWAVGFGRYVDPISINYRT
B8: SEQ ID NO 244 (designed binder)
chain: NVSPPRRARVTDATETTITISWRTKTETITRFFVSAVPFETGTIQRTIKPDVRSYTITGLQPGTAYDIALYTLFGYYYYPVVIDAST
B9: SEQ ID NO 243 (designed binder)
chain: NVSPPRRARVTDATETTITISWRTKTETITLFEVYADPQVSNGTYIQRTIKPDVRSYTITGLQPGTYYRIGLYTLSDYEKSTPVVIDAST
B10: SEQ ID NO 254 (designed binder)
chain: NVSPPRRARVTDATETTITISWRTKTETITYFSVEAYPRWYALIQRTIKPDVRSYTITGLQPGTSYYIYLWTLMMDTSSPVVIDAST
B11: SEQ ID NO 245 (designed binder)
chain: NVSPPRRARVTDATETTITISWRTKTETITDFGVVASPYLGQGIQRTIKPDVRSYTITGLQPGTAYSIKLHTLHVHDYYPVVIDAST
B12: SEQ ID NO 249 (designed binder)
chain: NVSPPRRARVTDATETTITISWRTKTETITYFGVRAYPTYRSSIQRTIKPDVRSYTITGLQPGTLYRISLYTLDSAGYNPVVIDAST
B13: SEQ ID NO 221 (designed binder)
chain: VSDVPRDLEVVAATPTSLLISWDAPAVTVRKYQIYYYYSAYVKESQEFTVPGSKSTATISGLKPGVSYNIAVYAVSKSRYQPPISINYRT
B14: SEQ ID NO 248 (designed binder)
chain: NVSPPRRARVTDATETTITISWRTKTETITYFGVGADPAMYIEYPYIQRTIKPDVRSYTITGLQPGTQYGIYLTTLSQASDYPVVIDAST
B15: SEQ ID NO 236 (designed binder)
chain: VSDVPRDLEVVAATPTSLLISWDAPAVTVRYYYGIYYAGKAGGDYFITQEFTVPGSKSTATISGLKPGVEYRIYVAAVGYHYTPPISINYRT
B16: SEQ ID NO 227 (designed binder)
chain: VSDVPRDLEVVAATPTSLLISWDAPAVTVRTYQIEYVSSYYRWTQEFTVPGSKSTATISGLKPGVVYFIYVAAVRDGPNDPISINYRT
B17: SEQ ID NO 242 (designed binder)
chain: NVSPPRRARVTDATETTITISWRTKTETITYFTVDAAPSLVVDNIQRTIKPDVRSYTITGLQPGTYYIILLYTLYNYDALPVVIDAST
B18: SEQ ID NO 253 (designed binder)
chain: NVSPPRRARVTDATETTITISWRTKTETITRFYVSAQPRFYYYNIQRTIKPDVRSYTITGLQPGTDYTIGLYTLGVYMHYPVVIDAST
B19: SEQ ID NO 251 (designed binder)
chain: NVSPPRRARVTDATETTITISWRTKTETITEFDVGADPGKGHAIQRTIKPDVRSYTITGLQPGTSYLIGLRTLNRVLHYPVVIDAST
B20: SEQ ID NO 222 (designed binder)
chain: VSDVPRDLEVVAATPTSLLTSWDAPAVTVRNYAIYYYDDDTGRQEFTVPGSKSTATISGLKPGVDYYIGVEAVWYWVSSPISINYRT
B21: SEQ ID NO 230 (designed binder)
chain: VSDVPRDLEVVAATPTSLLISWDAPAVTVRNYYIGYRYTVANWCYQEFTVPGSKSTATISGLKPGVSYWITAKAVVFEGDHPISINYRT
B22: SEQ ID NO 250 (designed binder)
chain: NVSPPRRARVTDATETTITISWRTKTETITQFSVYAYPARSKYHIQRTIKPDVRSYTITGLQPGTGYRIYLQTLGGYSDEPVVIDAST
B23: SEQ ID NO 225 (designed binder)
chain: VSDVPRDLEVVAAAPTSLLISWDAPAVTVRKYYIWYGYSYFVAYSSYQEFTVPGSKSTATISGLKPGVRYYIGVLAVKYPGDYYPISINYRT
B24: SEQ ID NO 241 (designed binder)
chain: NVSPPRRARVTDATETTITISWRTKTETITSFNVVAYPSSQDGIQRTIKPDVRSYTITGLQPGTGYQIHLTTLGHLSFSPVVIDAST
B25: SEQ ID NO 223 (designed binder)
chain: VSDVPRDLEVVAATPTSLLISWDAPAVTVRTYTIWYVQRYAYSQEFTVPGSKSTATISGLKPGVSYSISVRAVSTDRYYPISINYRT
B26: SEQ ID NO 224 (designed binder)
chain: VSDVPRDLEVVAATPTSLLISWDAPAVTVRYYSIAYWQLYLPVQEFTVPGSKSTATISGLKPGVSYGITVEAVMSGYSIYPISINYRT
B27: SEQ ID NO 234 (designed binder)
chain: VSDVPRDLEVVAATPTSLLISWDAPAVTVRSYRIMYSGYYAWEYSRQEFTVPGSKSTATISGLKPGVIYAIHVSAVVTNWEGPISINYRT
B28: SEQ ID NO 219 (designed binder)
chain: VSDVPRDLEVVAATPTSLLISWDAPAVTVRRYYIGYNWQSPAWNQEFTVPGSKSTATISGLKPGVYYQIYVAAVLRYGDYAPISINYRT
B29: SEQ ID NO 246 (designed binder)
chain: NVSPPRRARVTDATETTITISWRTKTETITYFYVAADPTEDGKIQRTIKPDVRSYTITGLQPGTYYTIHLRTLYYLVAVPVVIDAST
B30: SEQ ID NO 257 (designed binder)
chain: NVSPPRRARVTDATETTITISWRTKTETITTFDVYAYPGYGGSYWSIQRTIKPDVRSYTITGLQPGTSYEIELETLHYSHAYPVVIDAST
B31: SEQ ID NO 238 (designed binder)
chain: VSDVPRDLEVVAATPTSLLISWDAPAVTVRIYYIAYGYYPGWGRAGSQEFTVPGSKSTATISGLKPGVTYGISVSAVEERRKVPISINYRT
B32: SEQ ID NO 231 (designed binder)
chain: VSDVPRDLEVVAATPTSLLISWDAPAVTVRKYYIGYKLQVMEPDQEFTVPGSKSTATISGLKPGVEYWIGVDAVSYYWGFDPISINYRT
B33: SEQ ID NO 252 (designed binder)
chain: NVSPPRRARVTDATETTITISWRTKTETITSFRVDAGPGVAGSIQRTIKPDVRSYTITGLQPGTYYQIQLAALAYGYYPVVIDAST
B34: SEQ ID NO 228 (designed binder)
chain: VSDVPRDLEVVAATPTSLLISWDAPAVTVRSYKISYYGYHWVYQEFTVPGSKSTATISGLKPGVSYLISVSAVDYYGVLPISINYRT
B35: SEQ ID NO 256 (designed binder)
chain: NVSPPRRARVTDATETTITISWRTKTETITSFYVMAQPTNYYGQSTYIQRTIKPDVRSYTITGLQPGTYYGIQLYTLMYRASAPVVIDAST
B36: SEQ ID NO 235 (designed binder)
chain: VSDVPRDLEVVAATPTSLLISWDAPAVTVRDYWIYYRYSWPYGSQEFTVPGSKSTATISGLKPGVTYDIQVEAVYGSESGPISINYRT
B37: SEQ ID NO 226 (designed binder)
chain: VSDVPRDLEVVAATPTSLLISWDAPAVTVRYHSIGYNYYGMYQEFTVPGSKSTATISGLKPGVYYYIYVRAVTGREAAPISINYRT
B38: SEQ ID NO 220 (designed binder)
chain: VSDVPRDLEVVAATPTSLLISWDAPAVTVRSYSIGYFGAYRNWVQEFTVPGSKSTATISGLKPGVTYYIEVYAVYSNPVYPISINYRT

molecular target: T1, human serum albumin (human, UniProt P02768 25-609); experiment: cradle library selection hit
T1 construct: also called HSA
T1 sequence (P02768 25-609 limits assumed): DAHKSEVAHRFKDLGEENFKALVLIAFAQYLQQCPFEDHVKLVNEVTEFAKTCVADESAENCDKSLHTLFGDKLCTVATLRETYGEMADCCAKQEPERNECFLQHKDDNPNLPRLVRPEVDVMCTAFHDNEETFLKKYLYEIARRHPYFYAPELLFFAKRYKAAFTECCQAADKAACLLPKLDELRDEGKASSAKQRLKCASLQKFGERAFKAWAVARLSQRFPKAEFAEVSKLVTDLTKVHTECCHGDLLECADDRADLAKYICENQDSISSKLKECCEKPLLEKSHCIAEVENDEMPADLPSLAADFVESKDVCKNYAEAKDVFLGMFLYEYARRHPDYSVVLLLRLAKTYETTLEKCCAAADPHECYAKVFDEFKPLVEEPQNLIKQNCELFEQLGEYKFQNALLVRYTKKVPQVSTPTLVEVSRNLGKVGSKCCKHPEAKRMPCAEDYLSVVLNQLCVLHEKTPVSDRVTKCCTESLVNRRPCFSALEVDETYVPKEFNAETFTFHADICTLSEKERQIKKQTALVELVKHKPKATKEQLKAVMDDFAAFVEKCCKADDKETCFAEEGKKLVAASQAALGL

Binding result, binds:
B1
B2
B3
B4
B5
B6
B7
B8
B9
B10
B11
B12
B13
B14
B15
B16
B17
B18
B19
B20
B21
B22
B23
B24
B25
B26
B27
B28
B29
B30
B31
B32
B33
B34
B35
B36
B37
B38

— patent publication US20140057807A1 (UNIVERSITY OF CHICAGO, published 2014)
